Among the data in the supplement of paper PMC12042874 are amyloid nucleation score values, retold here.

± gives the uncertainty stated by the source.

This data set in a line: amyloid nucleation score (Sup35N fusion, yeast selection) (log enrichment); library NNK3; higher = more nucleation; inactive = no reads after selection. Put shortly:
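In psi-negative yeast, Sup35N fusions carrying peptides of 20 random codons were induced with 100 μM copper sulfate for 24 hours. The cells then grew 7 days at 30°C on medium lacking adenine and uracil, and plasmid inserts from input and output were Illumina-sequenced, excluding sequences with under 100 input reads. Nucleation score is the DiMSum log enrichment of output over input reads, centred on the mode score of non-aggregating sequences.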

For the substance HAGVHWFERGSFHWMLFINY, the amyloid nucleation score result is “inactive”.
The entry for NGEKLFSEDVVSYWVDVYSR is “inactive”.
For SILRVGKERRSGYSSGEEY, the amyloid nucleation score entry is “inactive”.
For the substance VDEADVRKHMT, the amyloid nucleation score result is “inactive”.
The figure for LMRNRFFNPVSGTFTASIGQ is -0.302 ± 1.1; for NLCVYWYSWGRSWGDFVTGY it is 0.269 ± 0.36; for HSDVWSVRSGAYLLLYIQTM it is “inactive”.
In the case of VQGLGGNWW, the amyloid nucleation score entry is “inactive”.
In turn, GFCLQSNLCIIGRSFWTFLI came in with an amyloid nucleation score of 0.629 ± 0.55.
With RTGTNS, the amyloid nucleation score entry was “inactive”.
The substance FVYFFCVSLTSSSPSDCDWP yielded an amyloid nucleation score of 1.6 ± 0.069.
The substance LCFRLDVSRMCTVSGNIGYC yielded an amyloid nucleation score of 1.57 ± 0.079.
Regarding IWASRS, the amyloid nucleation score entry was “inactive”.
With TWDLY, the amyloid nucleation score entry was “inactive”.
The entry for NMSTAWRRGNPVCTDSKYRV is “inactive”; for STFMYVCWRPTYGSYYQTVR it is “inactive”; for VGPLSDSVFMYGT it is “inactive”.
Consider IGRMKRSIGRCDPVWWNWVQ, for which the amyloid nucleation score entry is “inactive”.
In the case of RITPLDCLSNGRQ, the amyloid nucleation score entry was “inactive”.
As to LVAKRFISYHLIV, the amyloid nucleation score entry is “inactive”.
For FGYNWDCCRYMHDPRGLVTT, the amyloid nucleation score entry was “inactive”.
In the case of WHGYYMFLW, the amyloid nucleation score entry is “inactive”.
As to GSGVNWFNIVVVS, the amyloid nucleation score entry was “inactive”.
The entry for VLAMCVYSACMWFGNNAMLH is “inactive”; for EQSTRKGNR it is “inactive”.
TSLLGLRKHFLPHLIYMRNS: the amyloid nucleation score result is “inactive”.
Turning to FCYGSFGGLRELYCC, the amyloid nucleation score entry was “inactive”.
MNDNLNNHVSDEIFSFVG: the amyloid nucleation score is 0.813 ± 0.2.
On to THIGFFFNCIL, for which the amyloid nucleation score was found to be 2.56 ± 0.082.
As to TCVIKGGCCGLN, the amyloid nucleation score is -0.955 ± 2.5.
TSTRSEAFRVVVTLPVAVNW: the amyloid nucleation score result is “inactive”.
Take LIKCPIRYDDYKRPWLAS: the amyloid nucleation score entry is “inactive”.
The figure for NVFMTWYTARGFMCYPSWDR is 0.324 ± 0.43; for VNGSV it is “inactive”; for FLNCSSQKNATPHILFNGGM it is “inactive”.
Take GIFSRPFRAGRGRVIHNGPD: the amyloid nucleation score result is “inactive”.
Substance ISMSNHWLLLVICNDEWDLP returned an amyloid nucleation score of -0.06 ± 0.7.
With FYMFDSRLLFWRYCCWKFSY, the amyloid nucleation score entry was “inactive”.
The entry for YCGTY is “inactive”; for NFCFLCSWCIL it is 2.56 ± 0.052.
For TICPWNATLGGKGDRSMK, the amyloid nucleation score result is “inactive”.
Regarding IKRGRTVQKVFCMWVVSYPR, the amyloid nucleation score result was “inactive”.
For EFHCSYLVIWYG, the amyloid nucleation score result was “inactive”.
Turning to TCLRG, the amyloid nucleation score result is “inactive”.
The entry for YCYAMS is “inactive”.
As for FCRIAVMFKSNQELYRMDNG, the amyloid nucleation score entry was “inactive”.
The entry for SVRTLLVTHFLRKPLALI is “inactive”; for SILLVMP it is “inactive”; for ESDFRLYSCFDWNVVAMNYR it is 1.44 ± 0.074.
For the substance NLLVFDACHGVIRYGKTRVA, the amyloid nucleation score entry was “inactive”.
As to RQTCFIMVSCYPVKNGNSEI, the amyloid nucleation score was found to be 1.48 ± 0.15.
With FTGAMAFFLWFIQDYWFTGW the entry was “inactive”; with CFKFWWGIRENFKFLGDVMR, “inactive”; with LSNHSSLASRSYFTNCN, “inactive”.
SKDNWSRSTYTGACLR: the amyloid nucleation score entry was “inactive”.
Consider YVWMVSYMFLDFLDSTLALP, for which the amyloid nucleation score entry is “inactive”.
On to FMISDNMAQCMERGYRAEVF, for which the amyloid nucleation score entry is “inactive”.
Consider MFVDSSISGIEIR, for which the amyloid nucleation score result was “inactive”.
As to FLTWRIGVVS, the amyloid nucleation score entry is “inactive”.
Regarding FTPARRLSRLIVFCFG, the amyloid nucleation score entry was “inactive”.
The entry for GTNDSDFESWNVFKCINCLA is “inactive”.
On to FKRGTCISSSNYNIYCYWKC, for which the amyloid nucleation score entry was “inactive”.
In turn, KMMARTSNVVEVLCWRTDVA displayed an amyloid nucleation score of 0.015 ± 0.64.
For CEWNERRRDGSSRNFDLLSQ, the amyloid nucleation score is -0.045 ± 1.1.
Take RQLFWPTPINNFSVVNGILL: the amyloid nucleation score entry was “inactive”.
On to MRSMVKLSCDERVCFVISGE, for which the amyloid nucleation score entry was “inactive”.
Consider LFALSWTS, for which the amyloid nucleation score was 0.182 ± 0.35.
The figure for YFISWSFHGFVTSPGFWSGC is 1.41 ± 0.15; for GFSHANGHGTEKDFSSLIPV it is “inactive”; for LVVATRRLMYGHRKVYAWVD it is “inactive”.
QTYCYKEMFLITERWIPHSP gave an amyloid nucleation score of -0.155 ± 0.8.
With DPKTSYNADLAIGSCLLIDF the entry was “inactive”; with FFNDSYIRYFSCM, 0.02 ± 0.77; with FGLEFWTYTSIRFWLEYKPH, 0.972 ± 0.099.
SWAYL: the amyloid nucleation score result was “inactive”.
Consider SLSMATFKAILSLFADTWWR, for which the amyloid nucleation score result was “inactive”.
In turn, SAARSNPW yielded an amyloid nucleation score of 0.311 ± 0.31.
NSVHREECFLITF: the amyloid nucleation score result is “inactive”.
With WNAYVHTNNV, the amyloid nucleation score result is “inactive”.
Consider SISRLCVRMRIYKRTVAIYL, for which the amyloid nucleation score entry was “inactive”.
Regarding AFKLYWKYCRYNPWVRNR, the amyloid nucleation score result was “inactive”.
The entry for SPRLYETRMLPLTMGCGGDD is “inactive”; for IIGPGYFFYLKLYA it is 0.549 ± 0.27.
With IYYFSLSMVLRCSEWTLYVY the entry was “inactive”; with LQTMTDSFKRTQCLCSYKCT, “inactive”; with YLGVSILVSSYYWVRVGTGR, “inactive”.
The figure for MFVSLMKQFM is 0.931 ± 0.1; for YYGMMYEGGYAVIDIGLGHL it is “inactive”.
Turning to RYPGVFTTQSA, the amyloid nucleation score entry was “inactive”.
In turn, FLTVIGLYNLSDGPCCK showed an amyloid nucleation score of 1.79 ± 0.06.
As for CMIELRSR, the amyloid nucleation score entry is “inactive”.
Take ENPVSCKAIYYTVSIITSFS: the amyloid nucleation score entry is “inactive”.
Take FVTYDPYTFIDYFIVSHPRL: the amyloid nucleation score was 0.61 ± 0.17.
For the substance ISDRFQAESCSRCSLVSSMF, the amyloid nucleation score result is “inactive”.
Consider VYLHIVHCMGYVNDQGRNRS, for which the amyloid nucleation score result is “inactive”.
The figure for WNYRFYPVKRNGSFLSRIVR is -0.47 ± 0.8; for VLGWGSIVMNDEGELSVGMV it is “inactive”.
The entry for ISVIYLS is “inactive”; for VKSISNNSQLSSELN it is “inactive”.
On to KRLFIILIWKFCTGLCFL, for which the amyloid nucleation score result is “inactive”.
The substance LFSNSLNFLIK came in with an amyloid nucleation score of 0.679 ± 0.28.
With VQGRYLRRVCMRMVPLRRTD, the amyloid nucleation score entry is “inactive”.
Consider SNSFSSSLLCLDARD, for which the amyloid nucleation score entry was “inactive”.
With GYGCVTKV the entry was “inactive”.
With SVSFVDSRLLYVKICLSALG the entry was “inactive”; with CATIILSCILSL, 1.14 ± 0.13.
The entry for YLYFV is “inactive”.
Take KRVCCCKNSSSCE: the amyloid nucleation score result is “inactive”.
For the substance WTTNLVNAYLDRHVHNLMPL, the amyloid nucleation score result was “inactive”.
For the substance LNFVWNFNWLYWFLYGIERV, the amyloid nucleation score entry was “inactive”.
In the case of FLVICCCWD, the amyloid nucleation score turned out to be 2.08 ± 0.062.
On to SFKFMYNSFRSNGDIFSFNR, for which the amyloid nucleation score is 2.35 ± 0.073.
As for HSRRHCFLVSWE, the amyloid nucleation score result is “inactive”.
For GTLCVGPLKASCETGKLKFF, the amyloid nucleation score entry is “inactive”.
As for NTRREDSGWTNLCFWCARN, the amyloid nucleation score is 2.01 ± 0.052.
Take RGIKWWILDFWVDMHTCMFK: the amyloid nucleation score result is “inactive”.
On to AHCCSFRAEFV, for which the amyloid nucleation score is 1.75 ± 0.096.
Turning to SNFGTNSIYMCTAMIPM, the amyloid nucleation score result was “inactive”.
Substance VSYVCDPLRKIVGTLVRKQV came in with an amyloid nucleation score of 0.563 ± 0.33.
Take FPFKV: the amyloid nucleation score result was “inactive”.
In the case of NRIFIGQVFRIIGPWLGMYH, the amyloid nucleation score result was “inactive”.
Regarding YADRRIFSVS, the amyloid nucleation score result was “inactive”.
In the case of INQRLYEPFGRWVWTRYIAR, the amyloid nucleation score result was “inactive”.
MHIFVLNLDLSRA registered an amyloid nucleation score of 2.61 ± 0.069.
Regarding NQCAS, the amyloid nucleation score result is “inactive”.
SFTSC: the amyloid nucleation score result is “inactive”.
For the substance YQLFRFWDVRDSNHSKKIMQ, the amyloid nucleation score result is “inactive”.
With KYFIINYSVSSNGRKAHYCQ the figure was 2.28 ± 0.065; with SYGSLM, 0.198 ± 0.27; with SLRSYSDVSVVRFDANSTVS, “inactive”.
SSNILFVIFIAY had an amyloid nucleation score of 1.08 ± 0.21.
On to ISMHPERQVMMRLPCRMCCL, for which the amyloid nucleation score entry is “inactive”.
The entry for ETESATQPVTVIGVSELIRL is “inactive”; for ERARAAWSNGKAGLLWSGPG it is “inactive”.
